The record followed here is patent US20150038673A1.

In test [1] the target is anti-β1-ECII antibodies in rat sera reacting with both the Cys/Ser and the Ser/Cys mutated cyclopeptides (type2 reaction, n=5) (rat). As to the kind of experiment: ELISA competition, type2 sera (n=5), linear 25AA Cys/Cys peptide as antigen. (In general: An ELISA detects its analyte on a solid surface through an enzyme-linked reagent.)
For test [2], the target named is anti-β1-ECII antibodies in rat sera preferentially reacting with the Cys/Ser mutated cyclopeptides (type1 reaction, n=64) (rat). As to the kind of experiment: ELISA competition, type1 sera (n=64), linear 25AA Cys/Cys peptide as antigen.
Test [3] addresses anti-β1-ECII antibodies of GST/β1-ECII-immunized antibody-positive rats (sera or isolated IgG fractions) (rat). As to the kind of experiment: dose-dependent ELISA competition, n=6 rat sera.
Test [4] shares this target. As to the kind of experiment: ELISA after over-night incubation of n=6 rat sera with cyclopeptide (FIG. 27B, mean).
Test [5] shares this target. In words: ELISA competition, IgG of n=78 rats preincubated with peptide, linear 25AA Cys/Cys peptide as antigen.

Bridge positions count the residues as written; N and C are the ends. Square brackets hold non-standard residues; d marks the D form.

Take cyclo(ADEARRCYNDPKSCDFVQ) (disulfide 7-14 (inferred)) [β1-ECII-18AA Ser/Cys mutant (Gln-)cyclopeptide (formula X)]: the figures for the blocking capacity (% of blocked versus non-blocked ELISA-reactivity) in test [1] and in test [2] were 47% and 1%, respectively.

B1: ECII-25AA Cys/Ser mutant (Gln-)cyclopeptide (formula VII) (peptide)
peptide: cyclo(ARAESDEARRCYNDPKCSDFVTNRQ)
modifications: disulfide 11-17
SMILES: CC(C)[C@@H]1NC(=O)[C@H](Cc2ccccc2)NC(=O)[C@H](CC(=O)O)NC(=O)[C@H](CO)NC(=O)[C@@H]2CSSC[C@H](NC(=O)[C@H](CCCNC(=N)N)NC(=O)[C@H](CCCNC(=N)N)NC(=O)[C@H](C)NC(=O)[C@H](CCC(=O)O)NC(=O)[C@H](CC(=O)O)NC(=O)[C@H](CO)NC(=O)[C@H](CCC(=O)O)NC(=O)[C@H](C)NC(=O)[C@H](CCCNC(=N)N)NC(=O)[C@H](C)NC(=O)[C@H](CCC(N)=O)NC(=O)[C@H](CCCNC(=N)N)NC(=O)[C@H](CC(N)=O)NC(=O)[C@H]([C@@H](C)O)NC1=O)C(=O)N[C@@H](Cc1ccc(O)cc1)C(=O)N[C@@H](CC(N)=O)C(=O)N[C@@H](CC(=O)O)C(=O)N1CCC[C@H]1C(=O)N[C@@H](CCCCN)C(=O)N2
For B1, the blocking capacity (% of blocked versus non-blocked ELISA-reactivity) in test [1] is 48%. Moreover, in test [3], the decrease in free anti-beta1-ECII antibodies (%) at 8-fold molar excess of peptide was 30%, the decrease in free anti-beta1-ECII antibodies (%) at 20-fold molar excess of peptide worked out at 49% and the decrease in free anti-beta1-ECII antibodies (%) at 80-fold molar excess of peptide was determined as 83%. The same molecule came in with a blocking capacity (% of blocked versus non-blocked ELISA-reactivity) in test [2] of 69%.

As for cyclo(RAESDEARRCYNDPKCCDFVTG) (also: disulphide pairing among Cys10, Cys16, Cys17 not defined) [cyc22AA Cys/Cys, 3 cysteine-containing cyclic β1-ECII 22AA peptide with a Gly closure site], the blocking-efficiency (% of the ELISA signals of unblocked sera) in test [4] is 82%.

B2: ECII-22AA Cys/Ser mutant (Gly-)cyclopeptide (formula IX′) (peptide)
peptide: cyclo(RAESDEARRCYNDPKCSDFVTG)
modifications: disulfide 10-16
SMILES: CC(C)[C@@H]1NC(=O)[C@H](Cc2ccccc2)NC(=O)[C@H](CC(=O)O)NC(=O)[C@H](CO)NC(=O)[C@@H]2CSSC[C@H](NC(=O)[C@H](CCCNC(=N)N)NC(=O)[C@H](CCCNC(=N)N)NC(=O)[C@H](C)NC(=O)[C@H](CCC(=O)O)NC(=O)[C@H](CC(=O)O)NC(=O)[C@H](CO)NC(=O)[C@H](CCC(=O)O)NC(=O)[C@H](C)NC(=O)[C@H](CCCNC(=N)N)NC(=O)CNC(=O)[C@H]([C@@H](C)O)NC1=O)C(=O)N[C@@H](Cc1ccc(O)cc1)C(=O)N[C@@H](CC(N)=O)C(=O)N[C@@H](CC(=O)O)C(=O)N1CCC[C@H]1C(=O)N[C@@H](CCCCN)C(=O)N2
Take B2: the blocking-efficiency (% of the ELISA signals of unblocked sera) in test [4] was found to be 74.9%.

ARAESDEARRCYNDPKCCDFVTNRQ [linear non-mutated 3 Cys-containing ECII-25AA Cys/Cys (Gln25) peptide] displayed a blocking capacity (% of blocked versus non-blocked ELISA-reactivity) in test [5] of 55%. In test [3], this molecule yielded a decrease in receptor antibody-titers (%) at 8-fold molar excess of peptide of 24%, a decrease in receptor antibody-titers (%) at 20-fold molar excess of peptide of 35% and a decrease in receptor antibody-titers (%) at 80-fold molar excess of peptide of 50%.

On to ADEARRCYNDPKCSDFVQ [linear ECII-18AA Cys/Ser mutated (Gln18-)peptide], for which, in test [3], the decrease in receptor antibody-titers (%) at 8-fold molar excess of peptide worked out at 24%, the decrease in receptor antibody-titers (%) at 20-fold molar excess of peptide is 35% and the decrease in receptor antibody-titers (%) at 80-fold molar excess of peptide was determined as 50%.

With cyclo(ARAESDEARRCYNDPKCCDFVTNRQ) (also: three Cys (11, 17, 18), disulfide pairing not defined) [3 Cys-containing β1-ECII-25AA Cys/Cys cyclopeptide], the blocking capacity (% of blocked versus non-blocked ELISA-reactivity) in test [1] turned out to be 72%; in test [5] it was 67%; in test [2], 65%. Also, the blocking-efficiency (% of the ELISA signals of unblocked sera) in test [4] turned out to be 73.4%.

For the molecule cyclo(ADEARRCYNDPKSCDFV[dE]) (disulfide 7-14 (inferred)) [β1-ECII-18AA Ser/Cys cyclopeptide mutant with D-Glu ring closure (formula XII)], the figures for the blocking capacity (% of blocked versus non-blocked ELISA-reactivity) in test [1], in test [5] and in test [2] were 33%, 1% and 1%, respectively.

cyclo(ARAESDEARRCYNDPKSCDFVTNRQ) (disulfide 11-18 (inferred)) [β1-ECII-25AA Ser/Cys mutant (Gln-)cyclopeptide (formula XI)]: the blocking capacity (% of blocked versus non-blocked ELISA-reactivity) was 37% in test [1], 6% in test [5] and 6% in test [2].

B3: ECII-18AA Cys/Ser mutant (Gln-)cyclopeptide (formula VI) (peptide)
peptide: cyclo(ADEARRCYNDPKCSDFVQ)
modifications: disulfide 7-13
SMILES: CC(C)[C@@H]1NC(=O)[C@H](Cc2ccccc2)NC(=O)[C@H](CC(=O)O)NC(=O)[C@H](CO)NC(=O)[C@@H]2CSSC[C@H](NC(=O)[C@H](CCCNC(=N)N)NC(=O)[C@H](CCCNC(=N)N)NC(=O)[C@H](C)NC(=O)[C@H](CCC(=O)O)NC(=O)[C@H](CC(=O)O)NC(=O)[C@H](C)NC(=O)[C@H](CCC(N)=O)NC1=O)C(=O)N[C@@H](Cc1ccc(O)cc1)C(=O)N[C@@H](CC(N)=O)C(=O)N[C@@H](CC(=O)O)C(=O)N1CCC[C@H]1C(=O)N[C@@H](CCCCN)C(=O)N2
In turn, B3 had a blocking capacity (% of blocked versus non-blocked ELISA-reactivity) in test [1] of 50%. In test [3], this molecule yielded a decrease in free anti-beta1-ECII antibodies (%) at 8-fold molar excess of peptide of 53%, a decrease in free anti-beta1-ECII antibodies (%) at 20-fold molar excess of peptide of 66% and a decrease in free anti-beta1-ECII antibodies (%) at 80-fold molar excess of peptide of 85%. The blocking capacity (% of blocked versus non-blocked ELISA-reactivity) in test [2] was 68%. In test [4], this molecule registered a blocking-efficiency (% of the ELISA signals of unblocked sera) of 60%.

As to cyclo(ADEARRCYNDPKCCDFVQ) (also: three Cys (7, 13, 14), disulfide pairing not defined) [3 Cys-containing β1-ECII-18AA Cys/Cys cyclopeptide], the blocking capacity (% of blocked versus non-blocked ELISA-reactivity) in test [1] was 67%. In test [5], this molecule returned a blocking capacity (% of blocked versus non-blocked ELISA-reactivity) of 60%. In test [3], the decrease in free anti-beta1-ECII antibodies (%) at 8-fold molar excess of peptide was 46%, the decrease in free anti-beta1-ECII antibodies (%) at 20-fold molar excess of peptide turned out to be 56% and the decrease in free anti-beta1-ECII antibodies (%) at 80-fold molar excess of peptide came out at 71%. The molecule further returned a blocking capacity (% of blocked versus non-blocked ELISA-reactivity) in test [2] of 59%. This molecule came in with a blocking-efficiency (% of the ELISA signals of unblocked sera) in test [4] of 66.1%.

B4: β1-ECII-18AA Cys/Ser cyclopeptide mutant with D-Glu ring closure (formula VIII) (peptide)
peptide: cyclo(ADEARRCYNDPKCSDFV[dE])
modifications: disulfide 7-13
SMILES: CC(C)[C@@H]1NC(=O)[C@H](Cc2ccccc2)NC(=O)[C@H](CC(=O)O)NC(=O)[C@H](CO)NC(=O)[C@@H]2CSSC[C@H](NC(=O)[C@H](CCCNC(=N)N)NC(=O)[C@H](CCCNC(=N)N)NC(=O)[C@H](C)NC(=O)[C@H](CCC(=O)O)NC(=O)[C@H](CC(=O)O)NC(=O)[C@H](C)NC(=O)[C@@H](CCC(=O)O)NC1=O)C(=O)N[C@@H](Cc1ccc(O)cc1)C(=O)N[C@@H](CC(N)=O)C(=O)N[C@@H](CC(=O)O)C(=O)N1CCC[C@H]1C(=O)N[C@@H](CCCCN)C(=O)N2
B4: the blocking capacity (% of blocked versus non-blocked ELISA-reactivity) is 47% in test [1], 69% in test [5] and 69% in test [2].
